Assay results as given in patent US20240270866A1 (Alector, published 2024).
Positions count from the first letter of the chain named. Values belong to the binder of their own block, whether it stands above or below them.

Columns and labels:
[1] = molecular target: T1, mouse SIRPA overexpressed on CHO cells (mouse, UniProt P97797 32-513); experiment: flow, CHO-muSIRPA;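 as to relative MFI: antibody binding measured by flow cytometry: cells stained with 1 ug/ml test antibody for 1 h on ice, detected with PE-labelled secondary antibody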
T1 construct: also called CHO-muSIRPA
T1 sequence: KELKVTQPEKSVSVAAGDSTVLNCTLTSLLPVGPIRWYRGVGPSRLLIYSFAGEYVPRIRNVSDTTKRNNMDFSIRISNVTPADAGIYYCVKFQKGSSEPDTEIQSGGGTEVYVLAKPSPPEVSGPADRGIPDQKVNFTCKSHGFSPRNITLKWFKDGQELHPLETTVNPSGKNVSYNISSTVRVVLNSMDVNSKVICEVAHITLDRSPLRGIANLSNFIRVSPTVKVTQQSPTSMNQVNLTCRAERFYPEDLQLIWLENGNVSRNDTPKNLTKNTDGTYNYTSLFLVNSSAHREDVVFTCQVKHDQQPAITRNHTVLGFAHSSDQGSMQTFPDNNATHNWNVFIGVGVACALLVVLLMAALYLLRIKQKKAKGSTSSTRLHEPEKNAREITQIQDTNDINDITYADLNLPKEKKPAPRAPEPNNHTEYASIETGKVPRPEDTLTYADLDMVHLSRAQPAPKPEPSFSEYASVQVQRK

[2] = molecular target: T1, mouse SIRPA overexpressed on CHO cells; experiment: flow, CHO-muSIRPA; remark: listed apart in the source;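 as to relative MFI: antibody binding measured by flow cytometry: cells stained with 1 ug/ml test antibody for 1 h on ice, detected with PE-labelled secondary antibody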
[3] = molecular target: T2, human SIRPA overexpressed on CHO cells (human, UniProt P78324 31-504); experiment: flow, CHO-huSIRPA;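 also: Anti-SIRPA antibodies applied at 1 µg/mL for 1 h on ice, binding read by flow cytometry using a PE-labelled secondary antibody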
T2 construct: also called CHO-huSIRPA

Human SIRPb D1 Fc = Human SIRPb D1 Fc (human, UniProt O00241 30-148, limits assumed); experiment: ForteBio IgG avid;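 also: antibody IgG captured on AHQ biosensors, then 100 nM Fc-fused SIRP antigen applied for 3 min, followed by 3 min buffer dissociation, kinetics fitted to a 1:1 model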
Mouse SIRPA D1 Fc = molecular target: T3, Mouse SIRPA D1 Fc (mouse, UniProt P97797 32-150, limits assumed); experiment: ForteBio IgG avid;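 also: antibody IgG captured on AHQ biosensors, then 100 nM Fc-fused SIRP antigen applied for 3 min, followed by 3 min buffer dissociation, kinetics fitted to a 1:1 model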
T3 sequence: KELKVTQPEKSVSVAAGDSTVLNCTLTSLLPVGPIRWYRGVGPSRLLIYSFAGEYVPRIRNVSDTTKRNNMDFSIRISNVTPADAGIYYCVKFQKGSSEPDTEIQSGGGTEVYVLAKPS

[4] = molecular target: T4, human SIRPβ1 Fc fusion antigen (human, UniProt O00241 30-371); experiment: ForteBio IgG avid;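 also: ForteBio sensor-based avid binding of anti-SIRPA antibodies in IgG format, with the binding partner in solution at 100 nM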
T4 construct: not shown: human IgG1 Fc

[5] = molecular target: T5, human SIRPA Fc fusion antigen (human, UniProt P78324 31-373); experiment: ForteBio IgG avid;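 also: ForteBio sensor-based avid binding of anti-SIRPA antibodies in IgG format, with the binding partner in solution at 100 nM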
T5 construct: heterologous signal peptide; not shown: human IgG1 Fc

T4 sequence (O00241 30-371 limits assumed): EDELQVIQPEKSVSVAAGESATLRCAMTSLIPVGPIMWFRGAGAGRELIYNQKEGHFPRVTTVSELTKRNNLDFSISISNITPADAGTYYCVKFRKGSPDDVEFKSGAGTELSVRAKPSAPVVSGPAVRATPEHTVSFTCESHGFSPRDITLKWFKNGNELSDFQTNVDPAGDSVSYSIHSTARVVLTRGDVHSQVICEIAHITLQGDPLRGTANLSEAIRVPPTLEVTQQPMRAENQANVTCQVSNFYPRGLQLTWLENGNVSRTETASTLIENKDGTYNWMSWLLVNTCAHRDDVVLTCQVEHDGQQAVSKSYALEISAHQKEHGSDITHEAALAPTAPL
Human SIRPb D1 Fc, sequence (O00241 30-148 limits assumed): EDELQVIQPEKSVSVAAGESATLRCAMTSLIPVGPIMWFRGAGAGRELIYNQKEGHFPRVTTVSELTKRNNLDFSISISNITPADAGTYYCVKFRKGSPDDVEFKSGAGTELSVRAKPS

B1: SA-13 (antibody, V domains shown)
VH: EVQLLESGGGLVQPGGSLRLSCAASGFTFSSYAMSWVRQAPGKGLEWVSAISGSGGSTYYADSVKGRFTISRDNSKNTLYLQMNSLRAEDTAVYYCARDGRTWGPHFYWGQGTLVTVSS
VL: DIQMTQSPSSLSASVGDRVTITCRASQSISSYLNWYQQKPGKAPKLLIYAASSLQSGVPSRFSGSGSGTDFTLTISSLQPEDFATYYCQQGYIYPPTFGGGTKVEIK
notes: IgG; also called SA-13 (parental)
relative MFI [1]: 0.571 fold over background | binding result [2]: no binding (tested: 1 ug/ml) | relative MFI [3]: 59.9 fold over background | Kd (Human SIRPb D1 Fc): 19.6 nM | binding result (Mouse SIRPA D1 Fc): no binding (tested: 100 nM) | Kd [4]: 12.3 nM

B2: SA-5-61 (antibody, V domains shown)
VH: EVQLLESGGGLVQPGGSLKLSCAASGFTFDSYAMSWVRQAPGKGLEWVSAISGSGGSTYYADSVKGRFTISRDNSKNTLYLQMNSLRAEDTAVYYCAKDTGIDFWGQYPPYFDLWGRGTLVTVSS
VL: B1 VL with M4L, L11V, S28D, Y32W, N34A, Y94F, P96R
notes: IgG
Kd [5]: 2.3 nM | Kd [4]: 9.31 nM

B3: SA-13-69 (antibody, V domains shown)
VH: EVQLLESGGGLVQPGGSLRLSCAASGFTFTEYAMSWVRQAPGKGLEWVSAISGSGGSTYYADSVKARFTISRDNSKNTLYLQMNSLRAEDTAVYYCARDGTQWGPHFYWGQGTLVTVSS
VL: B1 VL
notes: IgG
Kd [4]: 3.99 nM

B4: SA-5-57 (antibody, V domains shown)
VH: EVQLLESGGGLVQPGGSLRLSCAASGFTFDSYAMSWVRQAPGKGLEWVSATSGGGGSTYHADPVKGRFTISRDNSKNTLYLQMNSLRAEDTAVYYCAKDITDDFWSVTPPYFDLWGRGTLVTVSS
VL: B1 VL with M4L, L11V, S28D, Y32W, N34A, Y94F, P96R
notes: IgG
Kd [5]: 2.61 nM | binding result [4]: no binding (tested: 100 nM)

B5: SA-5-58 (antibody, V domains shown)
VH: B2 VH with K19R, Y60H, D103S, F104L, G106S, Q107V, Y108T
VL: B1 VL with M4L, L11V, S28D, Y32W, N34A, Y94F, P96R
notes: IgG
Kd [5]: 2.78 nM | binding result [4]: no binding (tested: 100 nM)

B7: SA-19-72 (antibody, V domains shown)
VH: QVQLVESGGGVVQPGRSLGLSCAASGFTFSSYAMHWVRQAPGKGLEWVAGILYDGSNKYYADSVKGRFTISRDNSKNTLYLQMNSLRAEDTAVYYCARSNEKYTLGFAFDIWGQGTMVTVSS
VL: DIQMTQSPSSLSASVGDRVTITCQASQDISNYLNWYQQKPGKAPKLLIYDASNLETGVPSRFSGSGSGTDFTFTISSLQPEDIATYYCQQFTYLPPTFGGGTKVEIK
notes: IgG
Kd [5]: 1.1 nM | Kd [4]: 4.75 nM

B9: SA-19-73 (antibody, V domains shown)
VH: B7 VH with V11L, R16G, G19R, R98N, N100D, E101T
VL: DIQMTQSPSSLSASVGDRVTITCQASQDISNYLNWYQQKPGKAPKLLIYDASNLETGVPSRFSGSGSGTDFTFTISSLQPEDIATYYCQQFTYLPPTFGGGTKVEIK
notes: IgG
Kd [5]: 0.71 nM | Kd [4]: 2.95 nM

B10: SA-19-76 (antibody, V domains shown)
VH: QVQLVESGGGVVQPGRSLRLSCAASGFTFSSYGMHWVRQAPGKGLEWVAVIAYDGSNKLYADSVKGRFTISRDNAKNSLYLQMNSPRAEDTAVYYCATMRTKYTLGFAFDIWGQGTMVTVSS
VL: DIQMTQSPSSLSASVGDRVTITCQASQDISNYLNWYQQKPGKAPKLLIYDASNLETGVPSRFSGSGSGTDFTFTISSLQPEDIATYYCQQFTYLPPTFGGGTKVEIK
notes: IgG
Kd [5]: 0.504 nM | Kd [4]: 2.05 nM

B12: SA-19-74 (antibody, V domains shown)
VH: B7 VH with G19R, T28A, S99H, N100S, E101Q
VL: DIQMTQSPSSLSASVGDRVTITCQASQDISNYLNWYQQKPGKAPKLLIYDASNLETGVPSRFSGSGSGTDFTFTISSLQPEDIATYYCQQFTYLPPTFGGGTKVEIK
notes: IgG
Kd [5]: 0.676 nM | Kd [4]: 4.08 nM

B17: SA-19-75 (antibody, V domains shown)
VH: B10 VH with A75S, S78T, P86L, T98L
VL: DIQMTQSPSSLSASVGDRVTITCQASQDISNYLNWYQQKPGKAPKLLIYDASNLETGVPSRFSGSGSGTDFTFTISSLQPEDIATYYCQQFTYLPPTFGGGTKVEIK
notes: IgG
Kd [5]: 0.537 nM | Kd [4]: 3.13 nM

B21: SA-6 (antibody, V domains shown)
VH: EVQLVESGGGLVQPGRSLRLSCAASGFTFDDYAMHWVRQAPGKGLEWVSGITWNSGSIGYADSVKGRFTISRDNAKNSLYLQMNSLRAEDTALYYCAKEGRYGSGITTTWGQGTLVTVSS
VL: EIVMTQSPATLSLSPGERATLSCRASQSVSSYLAWYQQKPGQAPRLLIYDSSNRATGIPARFSGSGSGTDFTLTISSLEPEDFAVYYCQQDANYPYTFGGGTKVEIK
notes: IgG
relative MFI [1]: 0.545 fold over background | binding result [2]: no binding (tested: 1 ug/ml) | relative MFI [3]: 3.13 fold over background | binding result (Human SIRPb D1 Fc): no binding (tested: 100 nM) | binding result (Mouse SIRPA D1 Fc): no binding (tested: 100 nM)

B22: SA-7 (antibody, V domains shown)
VH: QVQLVESGGGVVQPGRSLRLSCAASGFTFSSYGMHWVRQAPGKGLEWVALIWYDGSNKYYADSVKGRFTISRDNSKNTLYLQMNSLRAEDTAVYYCAKEGSSYADGWPYGMDVWGQGTTVTVSS
VL: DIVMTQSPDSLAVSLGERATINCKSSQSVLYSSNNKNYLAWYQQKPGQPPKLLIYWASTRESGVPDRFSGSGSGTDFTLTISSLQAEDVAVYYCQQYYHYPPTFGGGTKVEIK
notes: IgG
relative MFI [1]: 0.515 fold over background | binding result [2]: no binding (tested: 1 ug/ml) | relative MFI [3]: 0.708 fold over background | binding result (Human SIRPb D1 Fc): no binding (tested: 100 nM) | binding result (Mouse SIRPA D1 Fc): no binding (tested: 100 nM)

B25: SA-8-66 (antibody, V domains shown)
VH: QVQLVESGGGVVQPGRSLRLSCAASGFTFSSYGMHWVRQAPGKGLEWVAVINGDGSNKYYADSVKGRFTISRDNSKNTLYLQMNSLRAEDTAVYYCAKEPRSYWHGYGMDVWGQGTTVTVSS
VL: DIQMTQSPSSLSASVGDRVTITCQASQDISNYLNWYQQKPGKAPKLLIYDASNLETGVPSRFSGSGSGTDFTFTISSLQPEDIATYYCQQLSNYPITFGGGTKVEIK
notes: IgG
Kd [5]: 2.14 nM | Kd [4]: 13.1 nM

Now from value to binder:

relative MFI [1]: 0.726 fold over background | binding result [2]: no binding (tested: 1 ug/ml) | relative MFI [3]: 2.13 fold over background | binding result (Human SIRPb D1 Fc): no binding (tested: 100 nM) | binding result (Mouse SIRPA D1 Fc): no binding (tested: 100 nM)
B6: SA-53 (antibody, V domains shown)
VH: QVQLQESGPGLVKPSQTLSLTCTVSGGSISSGGYYWSWIRQHPGKGLEWIGYIYYSGSTYYNPSLKSRVTISVDTSKNQFSLKLSSVTAADTAVYYCARGPLGAAGFDYWGQGTLVTVSS
VL: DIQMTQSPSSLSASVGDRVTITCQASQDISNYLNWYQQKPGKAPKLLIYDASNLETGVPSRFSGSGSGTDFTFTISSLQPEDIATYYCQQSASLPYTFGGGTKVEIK
notes: IgG

Kd [5]: 1.41 nM | Kd [4]: 4.25 nM
B8: SA-19-80 (antibody, V domains shown)
VH: B7 VH with Q1E, V5L, G19R, A33G, N84D, S85G, S99H, N100S, E101V
VL: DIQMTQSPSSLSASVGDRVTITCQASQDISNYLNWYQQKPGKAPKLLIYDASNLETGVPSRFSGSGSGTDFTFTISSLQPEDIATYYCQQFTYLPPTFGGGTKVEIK
notes: IgG

Kd [5]: 0.441 nM | Kd [4]: 3.94 nM
B11: SA-19-77 (antibody, V domains shown)
VH: B7 VH with G19R, A33G, H35A, G50Q, K58E, S99D, N100L, E101T
VL: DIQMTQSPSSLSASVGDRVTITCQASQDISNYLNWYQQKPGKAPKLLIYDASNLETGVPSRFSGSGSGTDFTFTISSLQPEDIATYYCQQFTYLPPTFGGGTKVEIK
notes: IgG

Kd [5]: 0.711 nM | Kd [4]: 2.59 nM
B13: SA-19-81 (antibody, V domains shown)
VH: B10 VH with F29S, A75S, S78T, P86L, T98R, M99T, R100P
VL: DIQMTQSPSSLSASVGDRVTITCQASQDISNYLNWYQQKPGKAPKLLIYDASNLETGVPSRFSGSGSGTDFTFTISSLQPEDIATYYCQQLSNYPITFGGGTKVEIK
notes: IgG

Kd [5]: 0.31 nM | Kd [4]: 1.36 nM
B14: SA-19-79 (antibody, V domains shown)
VH: B10 VH with L59I, A75S, S78T, P86L, M99T, R100D
VL: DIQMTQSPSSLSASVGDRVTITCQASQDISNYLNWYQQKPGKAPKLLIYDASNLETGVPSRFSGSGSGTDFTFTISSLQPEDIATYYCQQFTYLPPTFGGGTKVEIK
notes: IgG

Kd [5]: 0.573 nM | Kd [4]: 2.6 nM
B15: SA-19-84 (antibody, V domains shown)
VH: B10 VH with A75S, S78T, P86L, T98R, M99T, R100Q, T101L
VL: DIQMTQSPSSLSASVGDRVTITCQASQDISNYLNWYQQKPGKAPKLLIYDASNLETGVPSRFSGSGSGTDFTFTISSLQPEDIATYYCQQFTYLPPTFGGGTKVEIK
notes: IgG

Kd [5]: 0.742 nM | Kd [4]: 3.45 nM
B16: SA-19-82 (antibody, V domains shown)
VH: B7 VH with G19R, S99H, N100V, E101L
VL: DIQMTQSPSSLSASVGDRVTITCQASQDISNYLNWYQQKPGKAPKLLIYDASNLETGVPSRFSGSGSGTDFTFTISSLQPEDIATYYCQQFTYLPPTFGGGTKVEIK
notes: IgG

Kd [5]: 0.505 nM | Kd [4]: 2.82 nM
B18: SA-19-83 (antibody, V domains shown)
VH: B7 VH with G19R, S30D, A33L, G50S, L52I, R98S, S99V, N100R, E101T
VL: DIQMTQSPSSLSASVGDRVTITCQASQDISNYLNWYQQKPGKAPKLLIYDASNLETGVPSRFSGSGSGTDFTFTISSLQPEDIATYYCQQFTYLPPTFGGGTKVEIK
notes: IgG

Kd [5]: 1.06 nM | Kd [4]: 2.08 nM
B19: SA-19-78 (antibody, V domains shown)
VH: B10 VH with A75S, S78T, N84D, P86L, M99S, R100D
VL: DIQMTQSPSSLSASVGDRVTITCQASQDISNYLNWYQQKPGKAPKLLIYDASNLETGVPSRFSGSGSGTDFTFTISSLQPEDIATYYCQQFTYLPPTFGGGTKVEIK
notes: IgG

relative MFI [1]: 0.464 fold over background | binding result [2]: no binding (tested: 1 ug/ml) | relative MFI [3]: 1.89 fold over background | binding result (Human SIRPb D1 Fc): no binding (tested: 100 nM) | binding result (Mouse SIRPA D1 Fc): no binding (tested: 100 nM)
B20: SA-57 (antibody, V domains shown)
VH: QLQLQESGPGLVKPSETLSLTCTVSGGSISSSSYAWGWIRQPPGKGLEWIGSIYYSGSTYYNPSLKSRVTISVDTSKNQFSLKLSSVTAADTAVYYCARKGMDDAGMDVWGQGTTVTVSS
VL: B21 VL with M4L, S51A, A92S, N93A, Y94W, Y96F
notes: IgG

relative MFI [1]: 0.518 fold over background | binding result [2]: no binding (tested: 1 ug/ml) | relative MFI [3]: 5.56 fold over background | binding result (Human SIRPb D1 Fc): no binding (tested: 100 nM) | binding result (Mouse SIRPA D1 Fc): no binding (tested: 100 nM)
B23: SA-50 (antibody, V domains shown)
VH: EVQLVESGGGLVQPGGSLRLSCAASGFTFSSYSMNWVRQAPGKGLEWVSYISSSSSTIYYADSVKGRFTISRDNAKNSLYLQMNSLRAEDTAVYYCARGGGGYSYSPYIYGMDVWGQGTTVTVSS
VL: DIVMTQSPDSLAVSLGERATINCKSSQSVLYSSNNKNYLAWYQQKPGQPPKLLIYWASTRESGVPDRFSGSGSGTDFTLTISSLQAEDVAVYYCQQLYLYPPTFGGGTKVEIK
notes: IgG

relative MFI [1]: 0.557 fold over background | binding result [2]: no binding (tested: 1 ug/ml) | relative MFI [3]: 1.9 fold over background | binding result (Human SIRPb D1 Fc): no binding (tested: 100 nM) | binding result (Mouse SIRPA D1 Fc): no binding (tested: 100 nM)
B24: SA-52 (antibody, V domains shown)
VH: QVQLVQSGAEVKKPGASVKVSCKASGYTFTNYGISWVRQAPGQGLEWMGWISAYNGNTNYAQKLQGRVTMTTDTSTSTAYMELRSLRSDDTAVYYCARGLWSEHIYWGQGTLVTVSS
VL: EIVMTQSPGTLSLSPGERATLSCRASQSVSSSYLAWYQQKPGQAPRLLIYGASNRATGIPDRFSGSGSGTDFTLTISRLEPEDFAVYYCQQYVDLPLTFGGGTKVEIK
notes: IgG
